The results in this text go back to a protein production outcome set (Wang et al. 2014).

The data set in a line: label from the status in PepcDB records.

With “MQTFFQDTMATPLGELLIIADENNHLRAVEWREYEDGLFRSLNRSYRNDPFSLQSRHNPGGLTDSLQRYFDGELAIIDTLPVASVGTEFQQQVWRELRRIPCGEITTYGELATLLGRTGAARAVGMANGSNPISIVVPCHRVIGTGGALTGYAGGIHRKQWLLAHEGYLPHQNSLPL”, the protein production entry was “failed”. The entry for “MQTKKAFLYVFNTMSDWEYGYLIAELNSGRYFKKDLAPLKVITVGANKEMITTMGGLRIKPDISLDECTLESKDLLILPGGTTWSEEIHQPILERIGQALKIGTIVAAICGATDALANMGYLDTRKHTSNNLEYTKMVCPNYKGEKFYELGPAVSDANLVTASGIAPLEFAMEVLKKIDVFTLDALHSWYNLNKTHKPEYFFQLMNSINK” is “not failed”; for “MQTPSKKYVVDIWSDFVCPWCWIAKRRFENALNRSGMQDDVQVNVRAYRLAANQAPEPMIGALKRKLGNPASADSMMSTVSKYGRADGLDYRFDTMMFGDTADAHILVKAVEDTAVKKRLVEALYEQSTSHGRSLFDRSSLEAIAREVGVSDESIQLAWSSVELRNEMKDDESFAAQLGSGVPLFVFDSSFSVSGAQPDAVFLEALNKMVANSNPEDSSMMGQVCSIDGCKV” it is “not failed”. Regarding “MQTQIKVRGYHLDVYQHVNNARYLEFLEEARWDGLENSDSFQWMTAHNIAFVVVNININYRRPAVLSDLLTITSQLQQLNGKSGILSQVITLEPEGQVVADALITFVCIDLKTQKALALEGELREKLEQMVK”, the protein production result is given as “not failed”.

Regarding “MQTVLKKRKKSGYGYIPDIADIRDFSYTPEKSVIAALPPKVDLTPSFQVYDQGRIGSCTANALAAAIQFERIHDKQSPEFIPSRLFIYYNERKIEGHVNYDSGAMIRDGIKVLHKLGVCPEKEWPYGDTPADQKTEEFPPGAPASKKPSDQCYKEARNYKITEYSRVAQDIDHLKACLAAGSPFVFGFSVYNSWVGNNSLPVKIPLPTKNDKLEGGHAVLCVGYDDEIRHFRIRNSWGNNVGENGYFWMPYEYIRNRQLADDFWVIKTVRK”, the protein production result is recorded as “failed”. Turning to “MQTVQALLTAAKVDGAKSPYDTIHIKVLYPAKNTDSNLEKSWGMLPIDTAQAPLPVMIFFNGFNCDAQKYQWLGIELAQTGLVVVMFNWVGESLPGLVSFTPGFEIEKRKREFYGTAPTASALPAILTTLAQLQREGILAGTLDLEKIILGGHSEGGRVAMENANPNFFPQVVASFAYGSHTAGAVMLGYKPNTILPLPDTLPRLVIGGTHDGVIASSSSHFGLNTKDATTPVIRTFQEAIMGGHENSYLLILRGANHFSIVDIVDSTLALPFKDIPATQPQEHFRLLLATIIHLFIDAHVRHQPEAFQKLEQL”, the protein production result is listed as “failed”. The result for “MQTVRGWLTLPLALLIVLTGCMAVLSALVIEVQAGATSWIIGESHWSKAQQESVYWLERYLGSADPADLQAACRALEVPLGDRAARLAVDASPIDWAEVYAGLAAGRNAREDMPQMVRLYRYGQRLPYLGSAIALWKHTDGDILHLSLLADRAASAQATGTPDARALQSLRAELHLLDGRMRRDAAQFLTLLTRCARMLHDVMVTCSLATLLLVLSTCVLAIRRTRDYLMSHEGRFRTAFQHAALGMVKFDLSGRVLDANASLANILQYPPEALQACTLAEVMHPDDIVLDSRGLIDWPRLMQAGELRFLRSDGGVLWGRWSASLVEPGPQEPSLVLAVIEDVSQAHELADEVAYHARHDALTGLINRREIERRLQRLIDPPQSPQLCHALCFVDLDHFKLVNDTFGHAVGDKFLCHFADVITMQLRPGDWLGRLGGDEFAILLANTDLAHAHTLLERMHGVLGQPWSHQGGRPLTPSCSFGVVEIRQGADDVNLLMTAADLACHAAKEEGRNRIRSFGETDLAMARRRHDGGWISAVQQAIAEDRLLLYAQKIQVLSDPGRVQYEVLVRMRTRDGRVLSPGEFLPAVERYGLGRMVDAHVLETLCAQLSANPAHVASLDLCHVNLSAQSIAQRDFLDFVCALFERYPALVAKLCLEITETAVIGDLEHAQRFVQSVRARGCHVALDDFGSGLASFGYLKQFTVDVLKIDCGFVRNYAHDAVDRATVHSIAQVGLALGIEVVAEGVESEADIAGLREAGVGQVQGFSLHRPCPLDDLLHVSLPSLAAS” reads “failed”; that for “MQVKENKQLCLISLGCSKNLVDSEVMLGKLYNYTLTNDAKSADVILINTCGFIESAKQESIQTILNAAKDKKEGAILIASGCLSERYKDEIKELIPEVDIFTGVGDYDKIDIMIAKKQNQFSEQVFLSEHYNARIITGSSVHAYVKISEGCNQKCSFCAIPSFKGKLQSRELDSILKEVENLALKGYTDMTFIAQDSSSFLYDKGQKDGLIQLIRAIDKQQALKSARILYLYPSSTTLELIGAIESSPIFQNYFDMPIQHISDSMLKKMRRNSSQAHHLKLLDAMKQVKESFIRSTIIVGHPEENESEFEELSAFLDEFQFDRLNIFAFSAEENTHAYSLEKVPKKTINARIKALNKIALKHQNHSFKALLNKPIKALVENKEGEYFYKARDLRWAPEVDGEILINDSELTTPLKPGHYTIAPSEFKDNILLAKVLSPF”, “failed”; that for “MQVKTEEKSVNNKKLIPFWVIERALEGDIQAINKILKHYEGYIAKLSVRKMYDEYGCVHYCVDETLRRRLETKLIKTIIGFKIVRLEHHHHHH”, “not failed”.

With “MQVQVSGKHVDVGEALRARVSDEIALSIGKYFDRGGAAEVVVSKEGYAFRVDCSVKLASGQQLISHGSGGDAHAAFDAALAKIDTRIRRYKRRLKSHSAAATAKQVENAAMFVLRAPESDDVDEDWDIEDDHPTGAPAAMVIAETQAAMKTMTVSMAVMELDLTAYPAIVFRNAAHGGISVVYRRPDGNIGWIDPERTKSNGHGSTAS”, the protein production entry is listed as “failed”.

Regarding “MQVTFHPRACRFLKTRKAEKPNNEPLYASTSNRETIGDTGMSNPWIAIGALAVVALAIPLTMMAVSSLLRPSVPEQGKRTTYESGEVPTGSSRQIKFNIQYYMVALLFVVFDIETVFIFPWTVIYSDAAAELGMTTALLPMVVFITILAIGLGWAWRNGAVQWVRSPRATKGADTYE”, the protein production entry is “failed”. For “MQYANAYQAYQHNRVSVESPAKLIEMLYEGILRFSSQAKRCIENEDIEKKIYYINRVTDIFTELLNILDYEKGGEVAVYLTGLYTHQIKVLTQANVENDASKIDLVLNVARGLLEAWREIHSDELA”, the protein production result was “failed”.

Turning to “MQYAYPLLAIFIWAGNTVINKLAVGAIFPAEIGFYRWLLAGLLFTPFMLKPVIKHWPEVRPNLWRIAILGVLGMAVYQSLAYFAASLTSATNMGIILSLMPLMSLAMAIAALGQRLTAGALVGAVLSFAGVLVVVSSGSLAALLQHGVNLGDAMMLVATLAYAIYSTLLKKWQLRLPPLVLLYLQVLVAVVVLLPLFLASPKVGPTLQNIPLVLYACLLASMLAPLAWMQAVVRLGPSRTTLFFNLLPLITALIAAVVLHEQLAWFHLVGGLLTLGGVILSERWTTVLGPLAGKPASAGQR”, the protein production entry is reported as “failed”.

Take “MQYGAIVVTFNRKQLLIESITALLNQTVPPAKIIIIDNHSTDGTKAELQTADILANPSVDYRYLTKNIGGAGGFARGMQIAAADPNLDWASMSDDDAIFEPDYFEKLIAYQQDHPNRQILTGSVYIEDGRLQADQRNRFTNWSTFQAQAVPEREYRGNFEFDQYTFCGVFMSVAVIKQVGVADAGYFIWWDDCEYAVRTAKLSRPVNVSAAKLIHKTALPSLDFKSKFVPDWRLYYGQRNRLITIKRWRANSLVSLGWLLGFYARLAIQLCGPFYRGYRKMVIRVYLEALRDASREREGLNPNFMPGQKFLEHHHHHH”: the protein production result is given as “not failed”. The entry for “MQYLIVKYSHQIFVTITILVFNIRFFLLWKNPEKPLVGFWKALPHLNDTMLLFTGLWLMKITHFSPFNAPWLGTKILLLFAYIALGMVMMRARPRSTKFYTVYLLAMCCIACIVYLAKTKVLPF” is “failed”; for “MQYPPRLGFGTWQAPPEAVQTAVETALMTGYRHIDCAYVYQNEEAIGRAFGKIFKDASSGIKREDVWITSKLWNYNHRPELVREQCKKTMSDLQVDYLDLFLVHWPLAFVRNDVGDLFPKDAEGRAMLEKVPLADTWRAMEQLVEEGLVKHIGVSNYTVPLLADLLNYAKIKPLVNQIEIHPWHPNDATVKFCLDNGIGVTAYSPMGGSYADPRDPSGTQKNVILECKTLKAIADAKGTSPHCVALAWHVKKWNTSMYSVIPKSQTPARIEANFKCTEVQLSDDDMDAINNIHLNKRIRFCDPAIFWKVPLFD” it is “not failed”; for “MQYVMSIIGILVVLGLCFALSNNKSKINFRAIAIMIGFQILIGWFMFGTKIGQQIIIFIGKVFNKLIKLGTTGVDFLFNGIQRDFVFFLNVLLIIVFFSALLSIFSYLGVLPFIVRVVGGAISKITGLPRVESFHAVNSVFFGSSEALIVIKNDLQHFNKNRMFIICCSAMSSVSASVTASYVMMLDAKYVLAALPLNLFSSLIVCSLLTPVDTKKEDEVIQKFDRTLFGDSFIGAMINGALDGLKVAGIVAALMIAFIGVMEVVNYVISAASGAMGHAVTLQQIFGYVLAPFAFLMGIPAQDIIPAGGIMGTKIVLNEFVAILDLKGVAATLSPRTVGIVTVFLISFASISQIGAIVGTIRALSEKQGSVVSKFGWKMLFASTLASILSATIAGLFI” it is “failed”. The result for “MRADALKRREHIITTTCNLYRTHHHDSLTMENIAEQAGVGVATLYRNFPDRFTLDMACAQYLFNVVISLQLQAISTFPTDPEGVWTSFNQLLFDRGLGSLVPALAPESLDDLPDEVSALRRTTEKNTTTLINLAKQHGLVHHDIAPGTYIVGLITISRPPITALATISENSHKALLGLYLSGLKHGMMANIGEHDGKS” reads “not failed”. The entry for “MRADTRDFRALFLGDAPLLDTRAPVEFAKGAFPGAVNLPLMSDAERHKVGLCYKQQGQDAAIALGHRLVSGAVKAERVAAWAAFAQAHPEGYLYCFRGGLRSQISQAWLREEAGIAYPRVIGGYKAMRGFLLETIEQAIAEC” is “failed”; for “MRAFLRVVETGNFTRASASLNMPKATVTNLIQGLEAHLRTKLLNRTTRRVLVTPDGALYYERAARLLSDLDELDGSLSTAQSLPKGRLRVETASAFANLVIIPALPEFHKKYPDIQIDLGVSDRTIDYLAENVDCAIRAGTLTDQSLIARRITEMKFVACASRDFLERHPVPQHPSDLEKNCYVVGYFLPKTGQQMPFHFRRGNEEIEVSGRYTVAANESTTYLAAARAGLGVIQAPLFMVREDLRNGTMVPVLPDWQVEPMPIYLVYPPNRHLSSRLRVFADWVVKVMAQSQNGE” it is “not failed”. Regarding “MRAFYSTTEEISALFAKQQEQLKTMQRTLEDEDNCDNTSLDIDLNPINRSPNRANTQGDKRATSHLNFAARASSSTSGQRSTRNEVVDTSCEDADATQKHDCEIMSQEGQNTQEAEYPSSDKVAKGGFGSDIEGIGTAPTSGTDPVGTEQVNETQSPGNDYERNDHLRKSIILAGDTMQIDCETQVHESVQIEGAVLLLRNPNDRRDTQDIEGVGTIGTSDLLASEVAGSWANSTNPSVHGENETERSREDEESQTQKIKEVTIVQDSAGQIGESQTKPTSPGVLVTNKDDAERGVINEPVGITDQGKIKHGTRSDSETESCSDSDDDHEKEKHNPVSDSDTEGSDMNDDKGSLSSDPDTERSHEVDGDQKKQVDTMDEDDKAT”, the protein production result is listed as “failed”. “MRAGDGKIRVPADLDAVTATGEEDHSEIDGAAVDRIWRAARHWYRAGMHPAIQLCIRHHGRVVLNRAIGHGWGNAPTDEADAEKIPVTTDTPFCVYSAAKAITATVVHMLVERGHFALDDRVCEYLPSYTSHGKHRTTIRHVLTHSAGVPFPTGPRPDVRRADDHEYAVERLGELRPLYRPGLVHIYHALTWGPLMREIVYAATGKEIREILATEILDPLGFRWTNFGVAERDVPLVAPSHATGRQLPPVIAAVFRKAIGGTVHEIIPYTNTPFFLSTILPSSNTVSTANELSRFMEILRRGGELDGVRVLSPETLRGAVTECRRLRPDFATGLMPLRWGTGFMLGSAKYGPFGRNAPAAFGHLGLVNIAVWADPERALSGGLISSGKPGRDPEAGRYGALLNAITAEIPRASSG”: the protein production entry is given as “failed”.
